# Experimental data: US6682898B2, “High-throughput screening assays for modulators of STAT4 activity” (Tularik Inc., priority 1998, dated 2004)
# Non-standard residues stand in square brackets, D forms with d. No end group written: not given here. pY = N[C@@H](Cc1ccc(OP(=O)(O)O)cc1)C(=O)O
# T1: Syp (Homo sapiens, UniProt Q06124)
# T1 sequence (Q06124 1-593): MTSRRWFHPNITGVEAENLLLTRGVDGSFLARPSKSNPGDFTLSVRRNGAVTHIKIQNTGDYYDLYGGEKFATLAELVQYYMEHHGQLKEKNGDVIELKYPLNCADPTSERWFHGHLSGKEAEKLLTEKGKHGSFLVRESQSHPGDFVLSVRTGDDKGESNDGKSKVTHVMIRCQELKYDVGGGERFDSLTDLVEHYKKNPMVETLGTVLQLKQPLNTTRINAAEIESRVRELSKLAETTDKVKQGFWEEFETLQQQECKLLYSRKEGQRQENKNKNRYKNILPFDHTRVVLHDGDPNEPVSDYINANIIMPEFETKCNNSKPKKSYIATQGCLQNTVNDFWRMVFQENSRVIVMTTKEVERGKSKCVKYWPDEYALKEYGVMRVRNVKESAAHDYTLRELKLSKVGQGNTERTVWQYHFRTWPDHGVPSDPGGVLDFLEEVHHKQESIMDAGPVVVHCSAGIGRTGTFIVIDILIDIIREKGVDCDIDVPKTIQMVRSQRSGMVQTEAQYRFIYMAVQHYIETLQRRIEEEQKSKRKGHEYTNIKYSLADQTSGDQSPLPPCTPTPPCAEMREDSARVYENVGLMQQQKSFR
# T2: STAT6 (Homo sapiens, UniProt P42226)
# T2 sequence (P42226 1-847): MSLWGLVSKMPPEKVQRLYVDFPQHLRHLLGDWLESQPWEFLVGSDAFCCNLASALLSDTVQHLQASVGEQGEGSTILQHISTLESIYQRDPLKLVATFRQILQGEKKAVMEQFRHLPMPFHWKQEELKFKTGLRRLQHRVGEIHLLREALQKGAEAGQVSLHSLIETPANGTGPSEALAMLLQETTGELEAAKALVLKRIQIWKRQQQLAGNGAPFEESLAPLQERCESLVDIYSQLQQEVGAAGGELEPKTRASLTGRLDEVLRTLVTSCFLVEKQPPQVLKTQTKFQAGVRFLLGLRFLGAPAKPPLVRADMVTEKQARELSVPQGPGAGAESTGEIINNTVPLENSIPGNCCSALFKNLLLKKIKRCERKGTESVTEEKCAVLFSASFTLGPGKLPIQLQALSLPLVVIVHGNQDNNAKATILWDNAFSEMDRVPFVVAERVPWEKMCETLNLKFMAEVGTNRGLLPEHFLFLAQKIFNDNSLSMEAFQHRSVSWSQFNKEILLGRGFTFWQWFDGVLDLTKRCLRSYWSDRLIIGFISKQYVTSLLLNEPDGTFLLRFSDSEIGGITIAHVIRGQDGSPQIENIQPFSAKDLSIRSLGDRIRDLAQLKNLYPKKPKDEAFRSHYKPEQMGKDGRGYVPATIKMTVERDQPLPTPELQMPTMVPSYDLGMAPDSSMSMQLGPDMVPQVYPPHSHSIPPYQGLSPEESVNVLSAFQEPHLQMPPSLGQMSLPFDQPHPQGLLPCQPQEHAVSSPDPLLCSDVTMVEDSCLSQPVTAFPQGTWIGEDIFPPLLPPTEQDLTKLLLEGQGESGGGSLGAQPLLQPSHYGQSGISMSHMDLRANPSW
# T3: Ras-GAP (Homo sapiens, UniProt P20936)
# T3 sequence (P20936 1-1047): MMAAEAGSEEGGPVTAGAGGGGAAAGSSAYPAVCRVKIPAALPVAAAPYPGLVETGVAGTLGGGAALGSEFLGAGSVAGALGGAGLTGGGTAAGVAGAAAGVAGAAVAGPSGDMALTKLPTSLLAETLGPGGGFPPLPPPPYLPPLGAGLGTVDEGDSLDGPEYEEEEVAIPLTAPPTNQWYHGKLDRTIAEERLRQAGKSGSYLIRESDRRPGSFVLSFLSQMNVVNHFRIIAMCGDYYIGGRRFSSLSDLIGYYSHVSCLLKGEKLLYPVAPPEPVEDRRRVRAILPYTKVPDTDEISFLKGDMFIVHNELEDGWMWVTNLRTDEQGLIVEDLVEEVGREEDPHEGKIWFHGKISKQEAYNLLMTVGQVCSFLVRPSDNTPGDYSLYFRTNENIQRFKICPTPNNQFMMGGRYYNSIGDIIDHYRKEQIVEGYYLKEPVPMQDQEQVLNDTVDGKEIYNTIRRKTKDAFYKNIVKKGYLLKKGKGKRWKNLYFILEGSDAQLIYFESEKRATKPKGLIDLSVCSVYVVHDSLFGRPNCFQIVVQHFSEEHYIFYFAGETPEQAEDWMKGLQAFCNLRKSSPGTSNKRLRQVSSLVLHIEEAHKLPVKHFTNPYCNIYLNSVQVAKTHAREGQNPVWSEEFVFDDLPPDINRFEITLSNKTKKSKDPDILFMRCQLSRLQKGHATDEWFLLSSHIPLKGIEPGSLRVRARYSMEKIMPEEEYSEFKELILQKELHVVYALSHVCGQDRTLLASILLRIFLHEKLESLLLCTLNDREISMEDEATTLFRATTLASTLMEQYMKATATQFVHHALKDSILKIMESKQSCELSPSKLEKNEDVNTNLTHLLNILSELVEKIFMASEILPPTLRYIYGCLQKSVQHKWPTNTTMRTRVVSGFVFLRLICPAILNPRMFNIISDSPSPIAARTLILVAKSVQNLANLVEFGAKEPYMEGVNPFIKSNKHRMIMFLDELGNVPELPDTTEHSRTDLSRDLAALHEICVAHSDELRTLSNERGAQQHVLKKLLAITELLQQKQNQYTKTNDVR
# T4: STAT1 protein (UniProt P42224 1-750, limits assumed)
# T4 sequence (looked up): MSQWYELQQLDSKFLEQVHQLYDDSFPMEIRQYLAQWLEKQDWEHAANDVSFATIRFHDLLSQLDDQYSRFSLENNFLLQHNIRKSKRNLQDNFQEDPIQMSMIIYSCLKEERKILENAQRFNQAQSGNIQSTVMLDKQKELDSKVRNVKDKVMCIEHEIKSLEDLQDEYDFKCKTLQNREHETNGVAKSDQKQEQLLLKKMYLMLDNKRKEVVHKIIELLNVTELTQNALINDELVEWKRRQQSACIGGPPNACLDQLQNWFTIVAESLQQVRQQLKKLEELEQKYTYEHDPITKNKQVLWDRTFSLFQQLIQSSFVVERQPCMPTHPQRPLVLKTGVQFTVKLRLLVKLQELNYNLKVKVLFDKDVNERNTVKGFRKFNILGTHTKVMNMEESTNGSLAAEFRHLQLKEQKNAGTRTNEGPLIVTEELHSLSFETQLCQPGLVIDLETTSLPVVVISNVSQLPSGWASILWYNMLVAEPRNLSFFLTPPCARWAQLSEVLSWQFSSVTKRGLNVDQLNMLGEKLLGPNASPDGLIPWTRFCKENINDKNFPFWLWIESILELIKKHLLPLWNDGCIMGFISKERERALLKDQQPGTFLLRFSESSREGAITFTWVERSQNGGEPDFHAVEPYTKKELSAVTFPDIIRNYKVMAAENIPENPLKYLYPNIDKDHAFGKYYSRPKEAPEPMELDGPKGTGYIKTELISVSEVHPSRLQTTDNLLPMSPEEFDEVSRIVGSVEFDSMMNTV
# T5: STAT4 (UniProt Q14765 1-748, limits assumed)
# T5 construct: also called STAT4 polypeptide
# T5 sequence (looked up): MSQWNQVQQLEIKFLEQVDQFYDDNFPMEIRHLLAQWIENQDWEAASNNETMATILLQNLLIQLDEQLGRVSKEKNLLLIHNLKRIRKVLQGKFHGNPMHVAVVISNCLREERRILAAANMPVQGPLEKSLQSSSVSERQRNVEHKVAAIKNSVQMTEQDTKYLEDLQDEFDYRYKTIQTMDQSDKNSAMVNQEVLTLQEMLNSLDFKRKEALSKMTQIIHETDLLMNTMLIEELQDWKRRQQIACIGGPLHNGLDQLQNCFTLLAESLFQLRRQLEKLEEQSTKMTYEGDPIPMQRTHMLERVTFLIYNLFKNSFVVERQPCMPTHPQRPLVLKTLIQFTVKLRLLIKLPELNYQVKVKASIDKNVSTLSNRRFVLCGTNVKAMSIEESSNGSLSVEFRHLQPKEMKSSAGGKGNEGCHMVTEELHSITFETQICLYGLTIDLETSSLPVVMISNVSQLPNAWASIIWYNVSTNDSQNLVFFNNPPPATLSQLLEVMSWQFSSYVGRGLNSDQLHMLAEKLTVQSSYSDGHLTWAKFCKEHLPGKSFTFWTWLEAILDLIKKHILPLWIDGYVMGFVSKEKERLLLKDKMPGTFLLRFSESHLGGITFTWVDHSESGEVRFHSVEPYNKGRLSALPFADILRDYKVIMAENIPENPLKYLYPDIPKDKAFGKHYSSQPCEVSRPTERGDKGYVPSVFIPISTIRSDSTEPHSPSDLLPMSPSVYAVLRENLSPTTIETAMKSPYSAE
# Key:
# [1] = molecular target: T1, Syp; assay: SH2 domain protein binding assay, Syp; parameters: key: +++ = high affinity binding
# Source text: (§1) This Example describes binding assays for various proteins that contain SH2 domains.
# [2] = molecular target: P85-PI3K (Homo sapiens, UniProt P27986); assay: SH2 domain protein binding assay, P85-PI3K; parameters: key: +++ = high affinity binding
# Sequence of P85-PI3K (P27986 whole entry, the tested form may be a part): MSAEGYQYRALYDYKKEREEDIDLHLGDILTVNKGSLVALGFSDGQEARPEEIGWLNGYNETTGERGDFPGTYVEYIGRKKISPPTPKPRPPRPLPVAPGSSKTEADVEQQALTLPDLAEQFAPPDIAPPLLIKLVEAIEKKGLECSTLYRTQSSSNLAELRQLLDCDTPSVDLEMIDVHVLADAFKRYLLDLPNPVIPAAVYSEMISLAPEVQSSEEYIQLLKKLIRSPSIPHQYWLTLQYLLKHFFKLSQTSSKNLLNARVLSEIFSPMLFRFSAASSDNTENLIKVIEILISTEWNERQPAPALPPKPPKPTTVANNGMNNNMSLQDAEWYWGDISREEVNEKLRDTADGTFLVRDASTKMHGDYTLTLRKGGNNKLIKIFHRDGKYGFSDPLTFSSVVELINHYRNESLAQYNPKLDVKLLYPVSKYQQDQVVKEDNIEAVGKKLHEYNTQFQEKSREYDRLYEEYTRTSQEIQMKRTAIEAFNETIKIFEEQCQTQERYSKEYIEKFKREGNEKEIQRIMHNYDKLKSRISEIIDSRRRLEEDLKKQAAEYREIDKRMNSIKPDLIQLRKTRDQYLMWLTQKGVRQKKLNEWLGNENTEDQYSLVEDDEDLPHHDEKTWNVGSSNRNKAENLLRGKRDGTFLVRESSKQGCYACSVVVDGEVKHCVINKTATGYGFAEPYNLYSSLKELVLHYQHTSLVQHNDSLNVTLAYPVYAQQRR
# Source text: as §1
# [3] = system: PLCγ; assay: SH2 domain protein binding assay, PLCγ; parameters: key: +++ = high affinity binding
# Source text: as §1
# [4] = molecular target: T2, STAT6; assay: SH2 domain protein binding assay, STAT6; parameters: key: +++ = high affinity binding
# Source text: as §1
# [5] = molecular target: T3, Ras-GAP; assay: SH2 domain protein binding assay, Ras-GAP; parameters: key: +++ = high affinity binding
# Source text: as §1
# [6] = molecular target: Src (Homo sapiens, UniProt P12931); assay: SH2 domain protein binding assay, Src; parameters: key: +++ = high affinity binding
# Source text: as §1
# [7] = molecular target: T4, STAT1 protein; assay: method not stated; told of the SH2 domain of STAT1 at the start of Example 1
# [8] = molecular target: T4, STAT1 protein; assay: concentration at 50% binding of the STAT protein to the phosphotyrosine peptide (Example 4)
# [9] = molecular target: T5, STAT4; assay: as above
molecule,measurement,setting,value
YTAVQP: phosphotyrosine-containing peptide ligand ([pY]TAVQP),binding to Syp,[1],+++
YMNM: phosphotyrosine-containing peptide ligand ([pY]MNM),binding to P85-PI3K,[2],+++
YMDM: phosphotyrosine-containing peptide ligand ([pY]MDM),binding to P85-PI3K,[2],+++
YITPLP: phosphotyrosine-containing peptide ligand ([pY]ITPLP),binding to PLCγ,[3],+++
"GYKPFQDLI (G[pY]KPFQDLI) [phosphotyrosine-containing peptide ligand, Y is phosphotyrosine]",binding to STAT6,[4],+++
YMAP: phosphotyrosine-containing peptide ligand ([pY]MAP),binding to Ras-GAP,[5],+++
YEEI: phosphotyrosine-containing peptide ligand,binding to Src,[6],+++
G[pY]DKPHVL [interferon-γ receptor-derived peptide sequence GY^PDKPHVL],Kd,[7],~0.12 µM
SFG[pY]DKPHVL [SFGY*DKPHVL],IC50,[8],0.6 µM
same,IC50,[9],10 µM
